Assay results taken from PMC10115798, “Identification of D-arabinan-degrading enzymes in mycobacteria” (Nature Communications, 2023).

Legend:
Assay in all cases: SEC-MALS; SEC-LS: size exclusion chromatography coupled light scattering, Agilent MDS system, Agilent BioSEC 5 1000 Å or GE Superdex 200 column; detector offsets calibrated with BSA, concentrations by refractive index
[1] = molecular target: Dg_(GH172a) (HMPREF9455_02467), DUF2961 family GH172 exo-D-arabinofuranosidase from Dysgonomonas gadei (Dysgonomonas gadei) (UniProt F5IZF0)
[2] = molecular target: Dg_(GH172b) (HMPREF9455_02471), DUF2961 family GH172 exo-D-arabinofuranosidase from Dysgonomonas gadei (Dysgonomonas gadei) (UniProt F5IZF4)
[3] = molecular target: Dg_(GH172c) (HMPREF9455_02479), DUF2961 family GH172 exo-D-arabinofuranosidase from Dysgonomonas gadei (Dysgonomonas gadei) (UniProt F5IZG2)
[4] = molecular target: Myc_(GH172) (GII36_05205), DUF2961 homolog from Candidatus Mycosynbacter amalyticus (Candidatus Mycosynbacter amalyticus)
[5] = molecular target: the molecule itself

**Q.** Which stoichiometry N [1] does the source give for “Dg_(GH172a) (HMPREF9455_02467), DUF2961 family GH172 exo-D-arabinofuranosidase from Dysgonomonas gadei (from UniProt F5IZF0 1-386) (enzyme)” here?
**A.** The stoichiometry N was 12.

**Q.** How did the stoichiometry N [2] turn out when “Dg_(GH172b) (HMPREF9455_02471), DUF2961 family GH172 exo-D-arabinofuranosidase from Dysgonomonas gadei (from UniProt F5IZF4 1-643) (enzyme)” was run?
**A.** Its stoichiometry N is 2.

**Q.** How did the stoichiometry N [3] turn out when “Dg_(GH172c) (HMPREF9455_02479), DUF2961 family GH172 exo-D-arabinofuranosidase from Dysgonomonas gadei (from UniProt F5IZG2 1-402) (enzyme)” was run?
**A.** Its stoichiometry N is 6.

**Q.** “Myc_(GH172) (GII36_05205), DUF2961 homolog from Candidatus Mycosynbacter amalyticus (enzyme)” was tested. Which stoichiometry N [4] did it give?
**A.** Its stoichiometry N is 3.

B1: Noc_(GH172) (O3I_017420), DUF2961 family GH172 enzyme from Nocardia brasiliensis (enzyme, UniProt K0EX55 1-342, looked up)
chain: MTPPRRSELWLLDDTRTRSVSAENPTGAPGGGARATTGTGAHAARLLGPGWKISPSIVLGDGETATLADVSGPGVLRHCWLTTDRAALRELTLRMYWDDAAEPAIDVPLGDFFCNGWDELALVDSEMVVVAPAGGLNSYWPMPFRRRARITLENHCGRSVPVYYQITYGEEDVPGEAGYLHARWSRSAPLGSPAVHTLLDTGPARGRYVGTYLAIRPGAPRWWGEGEMKFYLDGDDEYPTLCGTGTEDYFGGAWNFDMDGKYRTYSTAYLGLPQALPADEIYQAHQRFGMYRWHVHDPICFHRELRVTVQGLGWRDSDTYLPLEDAEIATTVWWYQEVPPSG
notes: O3I_017420, DUF2961 homologue, Nocardia brasiliensis; codon-optimized gene bought from Twist Biosciences; also called GH172Noc; source: E. coli BL21-DE3, purified (IMAC, size exclusion chromatography)
**Q.** How did the “stoichiometry N” value [5] turn out when B1 was run?
**A.** Its value is 3.
